Test results reported in PMC9772109.

Biological target: H10 HA trimer of A/Jiangxi-Donghu/346/2013 (H10 JD13) (influenza A virus A/Jiangxi-Donghu/346/2013 (H10N8))
Test: negative stain EM, 3D reconstruction

Substance: H10 HA trimer of A/Jiangxi-Donghu/346/2013 (H10 JD13) (natural protein)
- stoichiometry N: 3
